The record followed here is the supplement of paper PMC12042874.

± gives the uncertainty stated by the source.

The series in a line: amyloid nucleation score (Sup35N fusion, yeast selection) (log enrichment); library NNK2; higher = more nucleation; inactive = no reads after selection. An outline of the steps: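 In psi-negative yeast, Sup35N fusions carrying peptides of 20 random codons were induced with 100 μM copper sulfate for 24 hours. The cells then grew 7 days at 30°C on medium lacking adenine and uracil, and plasmid inserts from input and output were Illumina-sequenced, excluding sequences with under 100 input reads. Nucleation score is the DiMSum log enrichment of output over input reads, centred on the mode score of non-aggregating sequences.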
As to VATAAEWVQAGLE, the amyloid nucleation score is 2.32 ± 0.11.
VATNCINMGS gave an amyloid nucleation score of -0.197 ± 0.79.
As for VAVTLNFLIGVIGCRGILMG, the amyloid nucleation score amounted to 5.482 ± 0.043.
For VAWVYSVLKCVSGLVG the value was -0.013 ± 0.4; for VAYLNLCLS, “inactive”.
On to VCCFLLHQN, for which the amyloid nucleation score is 6.88 ± 0.083.
As to VCFML, the amyloid nucleation score is 0.94 ± 0.52.
On to VCGFRAIVVVDPYWQPGKMA, for which the amyloid nucleation score was found to be 2.42 ± 0.13.
VCIVDLVS had an amyloid nucleation score of -0.203 ± 0.65.
VCNRPI gave an amyloid nucleation score of -0.78 ± 0.26.
Regarding VCRPDINVAHHPGFNFIVRS, the amyloid nucleation score entry is “inactive”.
In the case of VCSPIG, the amyloid nucleation score came out at 0.063 ± 0.45.
With VCYLLFFKRSSYKFSINHYC, the amyloid nucleation score result is “inactive”.
For VDCCSFSLWVVW the value was 3.98 ± 0.093.
As to VDETNAKL, the amyloid nucleation score came to 0.785 ± 0.3.
For VDFFVFHLVTDSIMSYAHCM the value was 0.633 ± 0.66; for VDFRFMMHPSEEWMSNHLPR, 1.14 ± 0.24; for VDNYEQLTMKNEHETNT, -0.902 ± 0.45.
Consider VDRIESVSYLYSHDYNESGP, for which the amyloid nucleation score is -0.212 ± 0.53.
On to VDSPKREVNMCVWLLRRKQR, for which the amyloid nucleation score was determined as 0.21 ± 0.34.
VDYASGGARGFGMVLRAFLE: the amyloid nucleation score was 0.132 ± 0.42.
As to VDYGQRAPTCITSHYHLNRC, the amyloid nucleation score stood at 0.227 ± 1.1.
Consider VDYTVFGGPTQRIGER, for which the amyloid nucleation score came out at 0.073 ± 0.3.
For VELSHFCTGRNSYSRRWISM the value was 0.422 ± 0.65; for VEVKNRYRVRKLLCGLLRIR, 0.799 ± 0.74.
As for VEWKRRNRVRVSRCELWFCF, the amyloid nucleation score was 3.93 ± 0.087.
VFARWFYAADGYIARLHVHT showed an amyloid nucleation score of 0.133 ± 0.5.
As for VFAWLIVGIWACLFGARIFW, the amyloid nucleation score was -0.291 ± 0.4.
In turn, VFFRLMKPNFGLP displayed an amyloid nucleation score of 0.199 ± 1.1.
Take VFFSESERYSGVKLGAVEDT: the amyloid nucleation score was 0.189 ± 0.49.
Turning to VFGSYCGSVPRAAKFAMT, the amyloid nucleation score entry was “inactive”.
For VFIFLGLPLFPMITSIDLGY the value was 2.28 ± 0.13.
As to VFMCVGFLLYHMNSELGPRG, the amyloid nucleation score was 2.88 ± 0.087.
For the substance VFNFVSFRFDDTVD, the amyloid nucleation score amounted to 6.987 ± 0.04.
For VFRDLSIERFIRSYVNCDRG, the amyloid nucleation score entry was “inactive”.
VFSDWMNCRYLMLRVCRVPR displayed an amyloid nucleation score of 0.629 ± 0.56.
For VFTILSCWGPYRCVVTRALL the value was “inactive”.
Regarding VFTISESHLCWQYHLQEFT, the amyloid nucleation score was 4.76 ± 0.068.
For the substance VFVMKMPWQSLISNLIFTSM, the amyloid nucleation score was found to be 1.23 ± 0.2.
In turn, VFVWECGAIQSLLISYMNDM displayed an amyloid nucleation score of -0.784 ± 0.53.
For VGDVGMFFLSR the value was -0.668 ± 0.34.
The substance VGFLYACYFRGTAVNETGYT yielded an amyloid nucleation score of 1.15 ± 0.13.
The substance VGGQNGCCWVVLNTSVPNSS gave an amyloid nucleation score of 6.645 ± 0.052.
The substance VGGWGWGHCPQRRQHVSLPV registered an amyloid nucleation score of 0.825 ± 0.53.
For VGLCSPWKHALFD the value was 3.33 ± 0.073; for VGNIGSSTC, -0.159 ± 0.45.
For VGRIEGHFYRSDCRQTYLYQ the value was -0.785 ± 0.74; for VGRTVMKWACIVE, 4.878 ± 0.034; for VGSFGLMKTYGVYCDNLLGR, “inactive”.
VGTAKYYFKGCLGTPRSNNL: the amyloid nucleation score result is “inactive”.
Regarding VHAVGHNSIGTRIRWVNGAA, the amyloid nucleation score came out at 0.504 ± 0.33.
In the case of VHCDYVIELGPGWWVRNWGS, the amyloid nucleation score was 0.42 ± 0.54.
For the substance VHGDMVFVCLTRCYRMF, the amyloid nucleation score came to 5.37 ± 0.065.
VHKYSSGMDYRSVVNLETLG came in with an amyloid nucleation score of 0.192 ± 1.
VHLSLGGNIGLDGLQMVGVL: the amyloid nucleation score result is “inactive”.
For VHMVPHCATW the value was 1.01 ± 0.38; for VHNQGFLFL, -0.07 ± 0.76; for VHSSVRQMSDY, 0.168 ± 0.4.
VHVYVGQKWSGGVLSLACYK displayed an amyloid nucleation score of 1.09 ± 0.35.
VHYMHLSRLLKLHAEPLAFW: the amyloid nucleation score was -0.02 ± 0.55.
For the substance VICLTIYRIDECLVCLLYVA, the amyloid nucleation score was -0.405 ± 0.33.
In the case of VIHAFIMYSFGTKDV, the amyloid nucleation score was found to be 0.885 ± 0.32.
For VIKGIEGVHGEKHVVYKVIC the value was 4.19 ± 0.065.
Take VINLRLLLIVLDGDIDYWCV: the amyloid nucleation score entry is “inactive”.
Substance VIPYISYLDIGTLVLLAFID returned an amyloid nucleation score of -0.373 ± 1.
In turn, VIRSSFFFSLELSSREEFGY registered an amyloid nucleation score of -0.817 ± 0.74.
The substance VISEGRHKSFSL returned an amyloid nucleation score of -0.105 ± 1.1.
The substance VITEADRLFHWIWKESLGEE yielded an amyloid nucleation score of 4.858 ± 0.035.
For VIVLIVLPEYAGVYSHWCWD, the amyloid nucleation score was determined as 0.772 ± 0.81.
VKFCIMSGSTKTINNYSQAR had an amyloid nucleation score of 5.57 ± 0.09.
For VKFFFTILVPFLIFVS the value was “inactive”.
As for VKFTVFTQGQALIVPSGLL, the amyloid nucleation score is 5.32 ± 0.084.
For VKGVLPVLWMGFNKQHFINH the value was 0.602 ± 0.81; for VKIWLCATCFMGEDVQETAQ, 7.055 ± 0.044.
Substance VKLPITGIERLLEARQGDQW had an amyloid nucleation score of 0.757 ± 0.39.
Substance VKPMMTFIATYGRYNHQFLS yielded an amyloid nucleation score of 0.861 ± 0.43.
VKREVLP showed an amyloid nucleation score of 0.117 ± 0.37.
For VKTQSTVWSYR the value was 0.409 ± 0.28; for VKVHSIESGGLRPWCVGASV, 0.747 ± 0.3; for VKVLSLVFTGMVPMQYSRYA, 11.31 ± 0.049.
VKVQKINGGCVGFDLTWLCN: the amyloid nucleation score came to 8.863 ± 0.034.
VKYYQGIGVWSKVWIMFD displayed an amyloid nucleation score of 0.7 ± 0.42.
In turn, VLALYYINSATLILFLIFKS registered an amyloid nucleation score of -1.16 ± 1.1.
In the case of VLATSFNFELGSGRTDLCRV, the amyloid nucleation score is -0.805 ± 0.46.
In the case of VLAVSLIYALTP, the amyloid nucleation score entry was “inactive”.
VLAYMQHFYRCQLCSVYVWG displayed an amyloid nucleation score of 4.23 ± 0.11.
On to VLCLNFHGANVGWDLTTVYT, for which the amyloid nucleation score was 1.02 ± 0.17.
As to VLEDNALVRYKDRGSSGWTV, the amyloid nucleation score was found to be 3.15 ± 0.059.
As to VLFCMSYKSARLEL, the amyloid nucleation score is 6.08 ± 0.07.
VLFEFTC: the amyloid nucleation score stood at 4.33 ± 0.05.
VLFSRFDSVWHVAIAVSARV came in with an amyloid nucleation score of 0.671 ± 0.42.
VLGLKKSADYKS displayed an amyloid nucleation score of -0.556 ± 0.74.
For the substance VLISVIWLRGRKLSVGWKKD, the amyloid nucleation score was 0.593 ± 0.53.
As for VLLSGLY, the amyloid nucleation score result was “inactive”.
VLMINWMKVADFHEYFFICH returned an amyloid nucleation score of 6.3 ± 0.066.
Turning to VLNVNDFPNYGRRSCSTNSF, the amyloid nucleation score came to 3.18 ± 0.17.
For the substance VLRSTLDD, the amyloid nucleation score result was “inactive”.
Turning to VLSCRSLSAQFSMPAFMEQS, the amyloid nucleation score was found to be 0.972 ± 0.18.
Regarding VLSDRKVY, the amyloid nucleation score came to 0.117 ± 0.79.
The substance VLSHYIRLHKSLDLSYSNGV displayed an amyloid nucleation score of -0.817 ± 0.61.
In turn, VLSWGFKGNAKPHHTDSLKG displayed an amyloid nucleation score of 0.603 ± 0.22.
VLSYSVFTLRLATKIVP: the amyloid nucleation score was -0.337 ± 1.1.
For the substance VLTMHPVRMFLDFFDDMMCY, the amyloid nucleation score entry was “inactive”.
For VLVCSANRLCNEPTIDRVLG the value was 4.14 ± 0.057; for VLVIGSIVYVCLSKDCCFNV, 9.543 ± 0.04.
Take VLVIVVTLRKWMTLNRRGVP: the amyloid nucleation score came out at 0.155 ± 0.53.
For VLVKL the value was -1.17 ± 0.48; for VLWHTGDMDMRVNRANELVS, 4.52 ± 0.046; for VLWMVQMIRPRSS, 7.02 ± 0.074.
As for VMATLHSLFVYRVDTFMFVE, the amyloid nucleation score turned out to be 0.358 ± 0.51.
As for VMGDWAFSGFSNSNFS, the amyloid nucleation score is -0.931 ± 0.44.
The substance VMGIEMIFVVGLWQLEDVKG registered an amyloid nucleation score of 0.747 ± 0.23.
With VMLHPSNSLALNCLT, the amyloid nucleation score was -0.297 ± 0.28.
The substance VMWDNVLSVLLVSGRVAFPM showed an amyloid nucleation score of 2.87 ± 0.099.
Consider VNCPRIMGSIGRLFVVYTQM, for which the amyloid nucleation score was 8.319 ± 0.06.
Turning to VNCYTIWVGNSSRSVHSINA, the amyloid nucleation score stood at 5.27 ± 0.083.
VNFGI returned an amyloid nucleation score of -0.948 ± 0.64.
For VNFPLVSGG the value was 0.114 ± 0.38; for VNFVLGVL, 0.086 ± 0.19.
The substance VNIVVILFIVADIKWRRF displayed an amyloid nucleation score of 3.15 ± 0.12.
VNLLFVVLCTMGSVSFKNSC: the amyloid nucleation score was 7.768 ± 0.036.
The substance VNLMVYASVIIGCAVARS returned an amyloid nucleation score of 7.06 ± 0.045.
For VNMLEQKGRMSDETPCTATP the value was 0.107 ± 0.79.
For VNPCVWIRIYWRS the value was -0.014 ± 0.65.
Consider VNQLRHYDLGINAHGQCRRL, for which the amyloid nucleation score worked out at 0.54 ± 0.8.
VNSNEVFIYPFTNLNFMML registered an amyloid nucleation score of 5.17 ± 0.087.
VNVIFHEYNVDAG showed an amyloid nucleation score of 4.02 ± 0.12.
For VNYHLFVYAQWIVRKGFILL the value was -0.78 ± 0.44.
VNYYSFLLVFPGLQLTREIN: the amyloid nucleation score came to 6.38 ± 0.09.
VPFGQTAVLSEGDSEVGGMK showed an amyloid nucleation score of -0.228 ± 1.1.
On to VPGSMLLCIVQALKHANMAG, for which the amyloid nucleation score was 0.417 ± 0.24.
VPHHPRVGSLPIHNSAAPYM came in with an amyloid nucleation score of -0.683 ± 0.45.
For VPICLSS the value was “inactive”.
The substance VPSFYYRIVTYKRAE displayed an amyloid nucleation score of 2.74 ± 0.094.
For the substance VQKTIVKLLAWLCFRGTAYC, the amyloid nucleation score amounted to 0.486 ± 0.8.
Consider VQNMIDKVMKYWTYSICSTV, for which the amyloid nucleation score is 1.27 ± 0.36.
Take VRCKVCPGRAYFDMRAPMQS: the amyloid nucleation score is -0.512 ± 0.63.
In turn, VRCRMFMYVMSDLSFMS displayed an amyloid nucleation score of 3.6 ± 0.047.
